Results reported in paper PMC12770486.

Legend:
[1] = biological target: T1, RAD51 (Homo sapiens, UniProt Q06609 1-339); assay: FLIM
[2] = biological target: T1, RAD51; assay: BLI

T1 sequence (Q06609 whole entry): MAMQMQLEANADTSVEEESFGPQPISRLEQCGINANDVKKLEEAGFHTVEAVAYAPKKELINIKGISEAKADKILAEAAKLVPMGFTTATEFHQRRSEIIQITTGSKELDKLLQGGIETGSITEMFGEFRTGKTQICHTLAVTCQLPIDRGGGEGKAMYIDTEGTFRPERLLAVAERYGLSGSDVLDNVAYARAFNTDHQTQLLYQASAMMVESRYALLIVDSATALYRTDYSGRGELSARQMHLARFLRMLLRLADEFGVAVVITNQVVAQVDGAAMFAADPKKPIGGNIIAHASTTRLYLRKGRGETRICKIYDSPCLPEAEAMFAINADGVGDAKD

| Binder | Kd [2] | also measured |
| --- | --- | --- |
| GCCCCGCCCCGCCCC (ssDNA, locked bases at both ends stated for in-cell assays; unclear for FLIM) [rcApt Texas Red] | – | binding result [1]: no binding |
| GCGGGGGCGGGG (ssDNA) [Apt4] | 413 ± 11 nM | – |
| CGGGCGGGCGGG (ssDNA) [Apt5] | 936 ± 39 nM | – |
| GGGGCGGGGCGGGGC (ssDNA) [Apt1] | 116 ± 14 nM | – |
| CGGCGCGGCGCGGCG (ssDNA) [Apt3] | 188 ± 13 nM | – |
| GGGGGGGGGGGGGGG (ssDNA) [Apt2] | 138 ± 4 nM | – |
| GCCCCGCCCCGCCCC (ssDNA) [rcApt] | – | binding result [2]: no binding |
| GGGGCGGGGCGGGGC (ssDNA, locked bases at both ends stated for in-cell assays; unclear for FLIM) [Apt1 Texas Red] | – | binding result [1]: binds |
